According to patent US20210363269A1 (ALX ONCOLOGY, published 2021):
Substitutions are numbered along the chain they refer to.

B1: antibody 66 (antibody, V domains shown)
VH: DVQLVESGGGVVRPGESLRLSCAASGFTFSSYAMSWVRQAPGKGLEWLAGISAGGSDTYYIDSVKGRFTISRDNPKNSLYLQMSSLTAEDTAVYYCARETWNHLFDYWGLGTLVTVSS
VL: ALTQPASVSANPGETVKITCSGGDYYSTYYAWYQQKSPGSAPVTVIHSDDKRPSDIPSRFSGSASGSAATLIITGVRVEDEAVYYCGGYDGRTYINTFGAGTTLTVL
notes: also called AB66; S66
B2: antibody 27 (antibody, V domains shown)
VH: DVQLVESGGGVVRPGESLRLSCAVSGFRFSSYAMSWVRQAPGKGLEWVSGISSGGDTYYVDSVKGRFTISRDNSKNTLYLQVNSLTAEDTAIYYCARETWNHLFDYWGLGTLVTVSS
VL: ALTQPASVSADLGETVKITCSGGDSSSHYYGWYQQKSPGSAPVTVIYSDDERPSDIPSRFSGSASGSTATLTITGVRVEDEAIYYCGAYDGSTYANTFGAGTTLTVL
notes: also called AB27; S27
B3: Hum1/AB21_HC_wt (antibody, V domains shown)
VH: B1 VH with Y32N, I61P, D62A, P75S, S78T, S84N, S85T
VL: SYELTQPPSVSVSPGQTARITCSGGSYSSYYYAWYQQKPGQAPVTLIYSDDKRPSNIPERFSGSSSGTTVTLTISGVQAEDEADYYCGGYDQSSYTNPFGGGTKLTVL
B4: Hum3/AB66_HC_wt (antibody, V domains shown)
VH: B1 VH
VL: SYELTQPPSVSVSPGQTARITCSGGDYYSTYYAWYQQKPGQAPVTVIHSDDKRPSDIPERFSGSSSGTTVTLTISGVQAEDEADYYCGGYDGRTYINTFGGGTKLTVL
B5: Hum1/AB25_HC_wt (antibody, V domains shown)
VH: DVQLVESGGGVVRPGESLRLSCEASGFTFSSNAMSWVRQAPGKGLEWVAGISSGSDTYYGDSVKGRLTISRDNSKNILYLQMNSLTAEDTAVYYCARETWNHLFDYWGLGTLVTVSS
VL: B3 VL
B6: Hum3/AB21_HC_wt (antibody, V domains shown)
VH: B1 VH with Y32N, I61P, D62A, P75S, S78T, S84N, S85T
VL: B4 VL
B7: Hum1/AB66_HC_wt (antibody, V domains shown)
VH: B1 VH
VL: B3 VL
B8: Hum3/AB25_HC_wt (antibody, V domains shown)
VH: B5 VH
VL: B4 VL
B9: Hum1/AB27_HC_wt (antibody, V domains shown)
VH: B2 VH
VL: B3 VL
B10: Hum3/AB27_HC_wt (antibody, V domains shown)
VH: B2 VH
VL: B4 VL
B11: S218 (scFv, V domains shown)
VH: DVQLVESGGGVVRPGESLTLSCTASGFTFTSSTMNWVRQAPGEGLDWVSSISTSGVITYYADSVKGRATISRDNSKNTLYLRLFSLRADDTAIYYCATDTFDHWGPGTLVTVSS
VL: ALTQPASVSANPGETVKITCFGSSGNYGWFQQKSPGSAPVTVIHYNNKRPSDIPSRFSGSKSGSTGTLTITGVRAEDEAVYFCGAWETGSATFGAGTTLTVL
notes: scFv-Fc format (VL-linker-VH on human IgG1 Fc)
B12: antibody 136 variant, light chain Mut / heavy chain Mut (antibody, V domains shown)
VH: EVQLVESGGGVVQPGRSLRLSCAASGFTFSSYDVNWVRQAPGKGLEWVSLISGSGEIIYYADSVKGRFTISRDNSKNTLYLQMNSLRAEDTAVYYCAKENNRYRFFDDWGQGTLVTVSS
VL: EIVLTQSPGTLSLSPGERATLSCRASQSVYTYLAWYQQKPGQAPRLLIYGASSRATGIPDRFSGSGSGTEFTLTISSLQSEDFAVYYCQQYYDRPPLTFGGGTKVEIK
B13: antibody 136 variant, light chain Mut_S22T / heavy chain Mut (antibody, V domains shown)
VH: B12 VH
VL: B12 VL with S22T
B14: antibody 136 variant, light chain Mut_S12T / heavy chain Mut (antibody, V domains shown)
VH: B12 VH
VL: B12 VL with S12T
B15: antibody 136 variant, light chain Mut_Q38E / heavy chain Mut (antibody, V domains shown)
VH: B12 VH
VL: B12 VL with Q38E

Target: T1, human SIRP-α v1 (human, UniProt P78324 31-149)
T1 construct: also called Human v1; Human V1
Assay: SPR
Summary of the method: (§1)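 On a ProteOn XPR36 biosensor, purified antibodies were either amine-coupled to a GLC chip or captured on an NLC chip using biotinylated Protein A. The running buffer was PBS pH 7.4 with 0.01% Tween-20, at 25° C. SIRP analytes, at nominal concentrations fixed by A280 absorbance, were injected in one-shot kinetic mode. The rate constants are apparent values from a global simple Langmuir fit of double-referenced data, and KD equals kd/ka.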

T1 sequence (P78324 31-149 limits assumed): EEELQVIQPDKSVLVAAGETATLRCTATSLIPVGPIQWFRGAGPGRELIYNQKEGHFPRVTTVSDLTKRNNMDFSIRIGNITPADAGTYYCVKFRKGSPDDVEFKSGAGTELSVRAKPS

Compared with B1, B2 is higher in Kd: under 0.001 nM for the first, 0.0215 nM for the second.

Target: T1, human SIRP-α v1
Assay: SPR
Remark: another data set of the same source
Summary of the method: as §1

In order of rising koff:
1. B8  5.94e-05 s⁻¹
2. B4  0.000124 s⁻¹
3. B7  0.000124 s⁻¹
4. B5  0.000133 s⁻¹
5. B6  0.000137 s⁻¹
6. B9  0.000192 s⁻¹
7. B3  0.000193 s⁻¹
8. B10  0.000216 s⁻¹
9. B2  0.000315 s⁻¹
10. B1  0.000949 s⁻¹

Target: T2, human SIRP-α v2 (human)
T2 construct: also called Human v2; Human V2
Assay: SPR
Summary of the method: as §1

T2 sequence (chain, as listed by the source limits assumed): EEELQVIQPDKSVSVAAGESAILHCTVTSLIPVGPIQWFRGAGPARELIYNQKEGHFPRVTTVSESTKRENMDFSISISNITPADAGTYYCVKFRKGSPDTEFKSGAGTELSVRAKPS

In order of rising koff:
1. B7  0.000239 s⁻¹
2. B5  0.000267 s⁻¹
3. B4  0.000287 s⁻¹
4. B9  0.000292 s⁻¹
5. B3  0.000303 s⁻¹
6. B8  0.000353 s⁻¹
7. B10  0.000396 s⁻¹
8. B6  0.000438 s⁻¹
9. B2  0.000579 s⁻¹
10. B1  0.00281 s⁻¹

Target: T3, cynomolgus SIRP-α (cynomolgus monkey, UniProt Q5TFQ8 30-148 (human entry), limits assumed)
T3 construct: also called cyno1
T3 chain: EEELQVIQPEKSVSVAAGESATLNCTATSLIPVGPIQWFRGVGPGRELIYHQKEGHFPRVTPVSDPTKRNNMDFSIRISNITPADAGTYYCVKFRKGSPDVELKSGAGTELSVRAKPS
Assay: SPR
Summary of the method: as §1

In order of falling koff:
1. B1  0.00269 s⁻¹
2. B2  0.000683 s⁻¹
3. B10  0.000464 s⁻¹
4. B6  0.000432 s⁻¹
5. B3  0.000395 s⁻¹
6. B9  0.000379 s⁻¹
7. B8  0.000375 s⁻¹
8. B5  0.00033 s⁻¹
9. B4  0.000306 s⁻¹
10. B7  0.000303 s⁻¹

Target: T4, BALBc mouse SIRP-α (mouse (BALB/c strain))
T4 chain: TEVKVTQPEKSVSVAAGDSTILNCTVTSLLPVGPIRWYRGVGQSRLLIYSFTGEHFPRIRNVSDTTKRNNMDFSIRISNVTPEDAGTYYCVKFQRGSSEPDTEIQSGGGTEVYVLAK
Assay: SPR
Summary of the method: as §1

In order of rising koff:
1. B10  0.000202 s⁻¹
2. B8  0.000227 s⁻¹
3. B4  0.00205 s⁻¹
4. B6  0.00231 s⁻¹
5. B7  0.00246 s⁻¹
6. B3  0.00291 s⁻¹
7. B1  0.00346 s⁻¹
8. B9  0.0037 s⁻¹
9. B5  0.00374 s⁻¹
10. B2  0.005 s⁻¹

Target: T5, human SIRPγ isoform 1 (human, UniProt Q9P1W8 29-147)
T5 construct: also called Gamma; Human SIRPg
Assay: SPR
Summary of the method: as §1
T5 sequence (Q9P1W8 29-147 limits assumed): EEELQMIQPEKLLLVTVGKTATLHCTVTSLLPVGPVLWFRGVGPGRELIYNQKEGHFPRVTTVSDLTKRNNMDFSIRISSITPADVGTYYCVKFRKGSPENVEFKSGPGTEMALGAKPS

In order of rising koff:
1. B4  0.000135 s⁻¹
2. B7  0.000136 s⁻¹
3. B8  0.000169 s⁻¹
4. B9  0.000178 s⁻¹
5. B3  0.000188 s⁻¹
6. B5  0.000203 s⁻¹
7. B10  0.000207 s⁻¹
8. B6  0.00021 s⁻¹
9. B2  0.000407 s⁻¹
10. B1  0.000997 s⁻¹

Target: T6, C57BL/6 mouse SIRP-α D1 domain (mouse (C57BL/6 strain), UniProt P97797 32-148)
T6 sequence: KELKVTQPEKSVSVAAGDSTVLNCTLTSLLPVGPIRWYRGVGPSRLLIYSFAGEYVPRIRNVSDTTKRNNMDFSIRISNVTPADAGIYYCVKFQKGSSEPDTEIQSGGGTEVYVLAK
Assay: SPR
Summary of the method: (§2)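 Pre-filtered culture media supplied the scFv-Fc antibody clones, which were captured by anti-human IgG Fc amine-coupled (about 4000 RU) to a GLC chip on a ProteOn XPR36. SIRP analytes were flowed in PBS pH 7.4 with 0.01% Tween-20 at 25° C. Interspot and buffer-blank responses were subtracted from the data, which were then fitted to a 1:1 Langmuir model. Dissociation rate constants (koff) were derived from this fitting.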

B11: no binding (tested: Koff > 5 × 10^3 (legend)).

Target: T7, human SIRPγ isoform 1 (human, UniProt Q9P1W8 29-147)
T7 construct: also called SIRPg; sirpg
Assay: SPR, Langmuir fit
Summary of the method: as §2
T7 sequence (Q9P1W8 29-147 limits assumed): as the sequence (Q9P1W8 29-147 limits assumed) above

Binder B11 has a koff of 2.12e-05 s⁻¹.

Target: T8, human SIRP-α v1 D1 domain (human, UniProt P78324 31-149)
T8 construct: also called human v1
Assay: SPR, Langmuir fit
Summary of the method: as §2

T8 sequence (P78324 31-149 limits assumed): as the sequence (P78324 31-149 limits assumed) above

With B11 the koff was 7.06e-05 s⁻¹.

Target: T9, human SIRP-α v2 D1 domain (human)
T9 construct: also called human v2
Assay: SPR, Langmuir fit
Summary of the method: as §2

T9 sequence (chain, as listed by the source limits assumed): as the sequence (chain, as listed by the source limits assumed) above

Binder B11 has a koff of 5.47e-05 s⁻¹.

Target: T10, cynomolgus SIRP-α D1 domain (cyno1) (cynomolgus monkey, UniProt Q5TFQ8 30-148 (human entry), limits assumed)
T10 chain: T3 chain
Assay: SPR, Langmuir fit
Summary of the method: as §2

With B11 the koff was 2.49e-05 s⁻¹.

Target: T1, human SIRP-α v1
Assay: SPR, antibody on GLC chip
Summary of the method: (§3)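 Protein A-purified antibodies were diluted to 80 nM in 10 mM sodium acetate pH 4.5 and amine-coupled (~1000 RU) to a GLC chip of a ProteOn XPR36 biosensor. SIRP analytes were injected one-shot at 100, 33, 11, 3.7, 1.2 and 0 nM in PBS pH 7.4 with 0.01% Tween-20 at 25° C. Association ran 90 s at 100 μL/min and dissociation 1200 s. KD came from double-referenced data fitted globally to a Langmuir model, as kd/ka.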

In order of falling Kd:
1. B12  7.29 nM
2. B15  6.18 nM
3. B13  4.99 nM
4. B14  4.88 nM

Target: T2, human SIRP-α v2
Assay: SPR, antibody on GLC chip
Summary of the method: as §3

In order of rising Kd:
1. B13  8.28 nM
2. B14  10.5 nM
3. B15  12.5 nM
4. B12  19.5 nM

Target: T11, NOD mouse SIRP-α (mouse (NOD strain))
T11 chain: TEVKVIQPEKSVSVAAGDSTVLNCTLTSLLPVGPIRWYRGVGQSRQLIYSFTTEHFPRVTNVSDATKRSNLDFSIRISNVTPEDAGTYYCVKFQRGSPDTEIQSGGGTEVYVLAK
Assay: SPR, antibody on GLC chip
Summary of the method: as §3

In order of falling Kd:
1. B15  5.98 nM
2. B12  5.21 nM
3. B14  2.85 nM
4. B13  2.44 nM

Target: T12, BL6 mouse SIRP-α (mouse (C57BL/6 strain), UniProt P97797 32-148)
T12 construct: also called C57BL/6
T12 sequence: T6 sequence
Assay: SPR, antibody on GLC chip
Summary of the method: as §3

In order of rising Kd:
1. B13  13.3 nM
2. B14  16.3 nM
3. B12  31.7 nM
4. B15  33.1 nM

Target: T4, BALBc mouse SIRP-α
Assay: SPR, antibody on GLC chip
Summary of the method: as §3

In order of rising Kd:
1. B13  1.64 nM
2. B14  2.09 nM
3. B15  2.98 nM
4. B12  3.14 nM

Target: T5, human SIRPγ isoform 1
Assay: SPR, antibody on GLC chip
Summary of the method: as §3

In order of rising Kd:
1. B12  1.68 nM
2. B15  19.3 nM
3. B13  61.7 nM
4. B14  66.7 nM
